Test [1] concerns the target HIP14L-GFP (Huntingtin Interacting Protein 14-like, GFP tagged) (human (from the printed RefSeq entries)) (UniProt Q8IUH4). The experiment in a line: co-IP; COS-7 cells transiently co-transfected, harvested after 24 h; lysed in 1% SDS TEEN, diluted in four volumes 1% TritonX-100 TEEN; GFP immunoprecipitated overnight (goat anti-GFP, Dynabeads Protein G); blots probed for HTT and GFP; HTT band as percent of the GFP band, normalized to 15Q HTT 1–548.

Test [2] deals with HIP14-GFP (Huntingtin Interacting Protein 14, GFP tagged) (human (from the printed RefSeq entries)) (UniProt Q8IUH5). The test is described as above.
Chain of UniProt Q8IUH5 (Q8IUH5 whole entry): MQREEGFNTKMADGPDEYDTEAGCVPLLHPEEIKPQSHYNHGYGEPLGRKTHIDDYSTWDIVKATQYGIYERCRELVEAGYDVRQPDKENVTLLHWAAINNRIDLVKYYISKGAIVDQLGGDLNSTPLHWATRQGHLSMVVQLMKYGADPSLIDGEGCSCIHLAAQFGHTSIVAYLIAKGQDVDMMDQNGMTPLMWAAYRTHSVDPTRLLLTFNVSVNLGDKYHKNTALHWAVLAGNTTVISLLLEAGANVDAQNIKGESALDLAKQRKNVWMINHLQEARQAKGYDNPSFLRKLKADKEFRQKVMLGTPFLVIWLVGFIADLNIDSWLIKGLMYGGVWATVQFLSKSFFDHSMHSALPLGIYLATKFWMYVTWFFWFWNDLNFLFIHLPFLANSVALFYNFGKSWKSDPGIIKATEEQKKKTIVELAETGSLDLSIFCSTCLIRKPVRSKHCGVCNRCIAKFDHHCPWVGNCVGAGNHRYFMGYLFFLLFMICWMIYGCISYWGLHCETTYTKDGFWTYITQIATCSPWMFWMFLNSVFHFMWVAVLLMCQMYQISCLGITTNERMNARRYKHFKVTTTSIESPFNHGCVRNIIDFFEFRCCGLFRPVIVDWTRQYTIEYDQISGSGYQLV

Chain of UniProt Q8IUH4 (Q8IUH4 whole entry): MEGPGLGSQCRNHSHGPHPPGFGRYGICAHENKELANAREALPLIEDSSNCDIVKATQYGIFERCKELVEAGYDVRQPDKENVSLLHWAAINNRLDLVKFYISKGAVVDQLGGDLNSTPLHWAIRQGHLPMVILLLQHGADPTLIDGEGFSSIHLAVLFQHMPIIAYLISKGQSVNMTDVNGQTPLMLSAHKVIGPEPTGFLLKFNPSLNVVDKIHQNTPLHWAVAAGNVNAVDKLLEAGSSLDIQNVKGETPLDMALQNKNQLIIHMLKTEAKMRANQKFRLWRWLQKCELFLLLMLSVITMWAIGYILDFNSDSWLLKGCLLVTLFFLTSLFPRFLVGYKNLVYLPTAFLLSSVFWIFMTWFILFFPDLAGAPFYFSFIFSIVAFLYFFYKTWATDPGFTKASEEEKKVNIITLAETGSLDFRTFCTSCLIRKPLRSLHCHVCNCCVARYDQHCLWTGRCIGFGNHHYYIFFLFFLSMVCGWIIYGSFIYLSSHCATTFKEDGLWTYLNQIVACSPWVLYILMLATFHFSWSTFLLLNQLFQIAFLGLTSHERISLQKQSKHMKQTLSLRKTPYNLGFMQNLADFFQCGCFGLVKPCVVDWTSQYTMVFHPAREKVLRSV

In turn, 128Q HTT 1–548 (domain or fragment) returned a percent decrease of interaction against 15Q HTT 1–548 in test [1] of 54%. The substance also came in with a percent less co-immunoprecipitated than 15Q HTT 1–548 in test [2] of 57%.

For the origin of these results see publication PMC3947954.
